Results as given in publication PMC5995894.

System: spDnmt2 (Schizosaccharomyces pombe)
Experiment: fluorescence polarization
Settings: binding buffer, salt, pH and temperature not given in the material (methods section text missing)

Q34 tRNAAsp
Kd (queuosine at position 34 (queuine enzymatically incorporated by human TGT)): 670 nM

G34 tRNAAsp (unmodified)
Kd: 960 nM
